In US20030068675, “Position dependent recognition of GNN nucleotide triplets by zinc fingers” (published 2003):

Legend:
Assay in all cases: EMSA
Details in all cases: tags: MBP fusion
ZFP SBS#629 = molecular target: T1, ZFP SBS#629 (synthetic)
T1 chain: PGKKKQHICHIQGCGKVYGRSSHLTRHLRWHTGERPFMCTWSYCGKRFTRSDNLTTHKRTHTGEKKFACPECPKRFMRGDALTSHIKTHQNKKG
How it was run: (§1)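 Purified ZFP was titrated against labeled double-stranded target (1 nM or lower, at least 10-fold below expected Kd) carrying the natural binding site with flanks. Binding buffer was 10 mM Tris pH 7.5, 100 mM KCl, 1 mM MgCl2, 0.1 mM ZnCl2, 5 mM DTT, 10% glycerol, 0.02% BSA, with equilibration for at least 45 min. Bound and free target were separated on a 10% polyacrylamide gel.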

ZFP SBS#628 = molecular target: T2, ZFP SBS#628 (synthetic)
T2 chain: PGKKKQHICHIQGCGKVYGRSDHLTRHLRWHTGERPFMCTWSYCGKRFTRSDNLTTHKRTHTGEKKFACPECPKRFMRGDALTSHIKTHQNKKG
How it was run: as §1

ZFP SBS#624 = molecular target: T3, ZFP SBS#624 (synthetic)
T3 chain: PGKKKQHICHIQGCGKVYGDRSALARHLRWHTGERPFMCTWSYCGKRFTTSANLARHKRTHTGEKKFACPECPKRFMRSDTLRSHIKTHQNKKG
How it was run: as §1

ZFP SBS#656 = ZFP SBS#656 (synthetic)
How it was run: as §1

ZFP SBS#654 = ZFP SBS#654 (synthetic)
How it was run: as §1

ZFP SBS#657 = molecular target: T4, ZFP SBS#657 (synthetic)
T4 chain: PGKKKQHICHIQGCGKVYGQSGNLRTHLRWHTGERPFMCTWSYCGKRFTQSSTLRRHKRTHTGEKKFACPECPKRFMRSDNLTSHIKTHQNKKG
How it was run: as §1

ZFP SBS#651 = ZFP SBS#651 (synthetic)
How it was run: as §1

ZFP SBS#646 = molecular target: T5, ZFP SBS#646 (synthetic)
T5 chain: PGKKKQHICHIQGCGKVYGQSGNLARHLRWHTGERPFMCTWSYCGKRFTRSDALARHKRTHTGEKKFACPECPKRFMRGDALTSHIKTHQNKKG
How it was run: as §1

ZFP SBS#647 = molecular target: T6, ZFP SBS#647 (synthetic)
T6 chain: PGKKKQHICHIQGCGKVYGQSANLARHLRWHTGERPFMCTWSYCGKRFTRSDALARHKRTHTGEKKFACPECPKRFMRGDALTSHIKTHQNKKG
How it was run: as §1

ZFP SBS#666 = molecular target: T7, ZFP SBS#666 (synthetic)
T7 chain: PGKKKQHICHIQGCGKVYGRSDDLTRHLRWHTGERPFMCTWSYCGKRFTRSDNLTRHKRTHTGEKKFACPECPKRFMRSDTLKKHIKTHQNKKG
How it was run: as §1

ZFP SBS#665 = molecular target: T8, ZFP SBS#665 (synthetic)
T8 chain: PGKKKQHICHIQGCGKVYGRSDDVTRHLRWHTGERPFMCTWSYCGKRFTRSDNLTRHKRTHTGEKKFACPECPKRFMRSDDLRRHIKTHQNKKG
How it was run: as §1

ZFP SBS#370 = molecular target: T9, ZFP SBS#370 (synthetic)
T9 chain: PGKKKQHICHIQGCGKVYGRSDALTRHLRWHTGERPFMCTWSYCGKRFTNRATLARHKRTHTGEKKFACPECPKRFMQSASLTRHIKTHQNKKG
How it was run: as §1

ZFP SBS#403 = molecular target: T10, ZFP SBS#403 (synthetic)
T10 chain: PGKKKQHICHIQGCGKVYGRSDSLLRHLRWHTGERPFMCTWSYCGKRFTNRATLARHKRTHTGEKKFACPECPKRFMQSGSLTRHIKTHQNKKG
How it was run: as §1

ZFP SBS#373 = molecular target: T11, ZFP SBS#373 (synthetic)
T11 chain: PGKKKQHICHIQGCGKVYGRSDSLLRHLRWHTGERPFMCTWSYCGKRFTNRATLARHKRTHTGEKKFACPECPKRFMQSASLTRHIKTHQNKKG
How it was run: as §1

ZFP SBS#569 = molecular target: T12, ZFP SBS#569 (synthetic)
T12 chain: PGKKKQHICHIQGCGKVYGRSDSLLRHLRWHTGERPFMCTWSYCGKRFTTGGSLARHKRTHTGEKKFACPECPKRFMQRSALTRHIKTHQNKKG
How it was run: as §1

ZFP SBS#401 = molecular target: T13, ZFP SBS#401 (synthetic)
T13 chain: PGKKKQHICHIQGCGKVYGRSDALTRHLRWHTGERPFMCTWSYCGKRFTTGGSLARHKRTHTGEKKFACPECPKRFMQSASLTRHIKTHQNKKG
How it was run: as §1

ZFP SBS#369 = molecular target: T14, ZFP SBS#369 (synthetic)
T14 chain: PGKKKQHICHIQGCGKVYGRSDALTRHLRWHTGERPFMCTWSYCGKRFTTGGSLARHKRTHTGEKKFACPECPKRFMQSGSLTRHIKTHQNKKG
How it was run: as §1

ZFP SBS#371 = molecular target: T15, ZFP SBS#371 (synthetic)
T15 chain: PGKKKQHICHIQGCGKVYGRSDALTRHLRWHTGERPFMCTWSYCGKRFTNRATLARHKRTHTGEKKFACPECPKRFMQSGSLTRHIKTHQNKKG
How it was run: as §1

ZFP SBS#372 = molecular target: T16, ZFP SBS#372 (synthetic)
T16 chain: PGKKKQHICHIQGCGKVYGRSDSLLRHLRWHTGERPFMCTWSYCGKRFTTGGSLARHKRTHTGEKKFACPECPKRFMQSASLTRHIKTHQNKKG
How it was run: as §1

ZFP SBS#422 = molecular target: T17, ZFP SBS#422 (synthetic)
T17 chain: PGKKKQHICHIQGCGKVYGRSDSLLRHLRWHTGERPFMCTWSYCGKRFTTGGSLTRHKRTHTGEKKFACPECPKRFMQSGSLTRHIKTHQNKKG
How it was run: as §1

ZFP SBS#421 = molecular target: T18, ZFP SBS#421 (synthetic)
T18 chain: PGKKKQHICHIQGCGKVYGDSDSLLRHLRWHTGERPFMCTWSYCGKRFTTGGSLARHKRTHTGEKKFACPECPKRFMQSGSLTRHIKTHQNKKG
How it was run: as §1

ZFP SBS#653 = molecular target: T19, ZFP SBS#653 (synthetic, UniProt P08047)
T19 chain: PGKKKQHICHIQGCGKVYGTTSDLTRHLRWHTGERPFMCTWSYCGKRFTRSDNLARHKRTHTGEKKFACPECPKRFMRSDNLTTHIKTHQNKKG
How it was run: as §1

ZFP SBS#652 = ZFP SBS#652 (synthetic)
How it was run: as §1

ZFP SBS#611 = ZFP SBS#611 (synthetic)
How it was run: as §1

ZFP SBS#612 = molecular target: T20, ZFP SBS#612 (synthetic)
T20 chain: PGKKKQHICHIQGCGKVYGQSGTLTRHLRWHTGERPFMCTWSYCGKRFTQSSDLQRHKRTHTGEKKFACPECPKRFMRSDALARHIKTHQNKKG
How it was run: as §1

ZFP SBS#617 = molecular target: T21, ZFP SBS#617 (synthetic)
T21 chain: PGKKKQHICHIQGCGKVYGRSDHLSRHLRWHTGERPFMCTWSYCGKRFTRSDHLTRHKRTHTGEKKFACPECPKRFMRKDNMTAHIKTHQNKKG
How it was run: as §1

ZFP SBS#619 = molecular target: T22, ZFP SBS#619 (synthetic)
T22 chain: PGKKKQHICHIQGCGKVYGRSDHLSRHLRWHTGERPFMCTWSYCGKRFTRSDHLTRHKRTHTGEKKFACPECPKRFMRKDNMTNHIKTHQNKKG
How it was run: as §1

ZFP SBS#621 = molecular target: T23, ZFP SBS#621 (synthetic)
T23 chain: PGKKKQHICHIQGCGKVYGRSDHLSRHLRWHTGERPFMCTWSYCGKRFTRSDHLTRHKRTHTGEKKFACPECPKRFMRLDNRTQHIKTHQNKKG
How it was run: as §1

ZFP SBS#620 = ZFP SBS#620 (synthetic)
How it was run: as §1

ZFP SBS#618 = molecular target: T24, ZFP SBS#618 (synthetic)
T24 chain: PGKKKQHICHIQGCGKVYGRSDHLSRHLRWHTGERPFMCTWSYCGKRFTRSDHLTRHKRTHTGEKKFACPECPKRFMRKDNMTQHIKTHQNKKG
How it was run: as §1

ZFP SBS#616 = ZFP SBS#616 (synthetic)
How it was run: as §1

ZFP SBS#614 = ZFP SBS#614 (synthetic)
How it was run: as §1

ZFP SBS#608 = molecular target: T25, ZFP SBS#608 (synthetic)
T25 chain: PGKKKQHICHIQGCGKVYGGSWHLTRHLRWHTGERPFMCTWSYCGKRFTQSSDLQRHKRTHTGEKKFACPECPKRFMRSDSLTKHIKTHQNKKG
How it was run: as §1

ZFP SBS#613 = ZFP SBS#613 (synthetic)
How it was run: as §1

ZFP SBS#630 = ZFP SBS#630 (synthetic)
How it was run: as §1

ZFP SBS#661 = ZFP SBS#661 (synthetic)
How it was run: as §1

ZFP SBS#660 = molecular target: T26, ZFP SBS#660 (synthetic)
T26 chain: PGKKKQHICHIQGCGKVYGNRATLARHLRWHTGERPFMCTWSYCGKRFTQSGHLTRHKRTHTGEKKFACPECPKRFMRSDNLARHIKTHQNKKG
How it was run: as §1

Sequence of ZFP SBS#652 (synthetic) (chain, as listed by the source): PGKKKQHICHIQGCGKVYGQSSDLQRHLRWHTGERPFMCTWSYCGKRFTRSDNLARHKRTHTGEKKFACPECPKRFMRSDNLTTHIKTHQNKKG
Sequence of ZFP SBS#651 (synthetic) (chain, as listed by the source): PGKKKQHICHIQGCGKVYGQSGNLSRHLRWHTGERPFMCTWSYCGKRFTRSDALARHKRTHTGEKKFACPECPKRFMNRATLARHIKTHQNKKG
Sequence of ZFP SBS#661 (synthetic) (chain, as listed by the source): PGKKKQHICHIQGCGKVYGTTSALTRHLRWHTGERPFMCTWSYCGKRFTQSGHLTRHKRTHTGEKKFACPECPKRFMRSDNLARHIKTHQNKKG
Sequence of ZFP SBS#614 (synthetic) (chain, as listed by the source): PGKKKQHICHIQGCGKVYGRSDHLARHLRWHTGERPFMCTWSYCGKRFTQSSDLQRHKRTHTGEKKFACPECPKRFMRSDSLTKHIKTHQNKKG
Sequence of ZFP SBS#620 (synthetic) (chain, as listed by the source): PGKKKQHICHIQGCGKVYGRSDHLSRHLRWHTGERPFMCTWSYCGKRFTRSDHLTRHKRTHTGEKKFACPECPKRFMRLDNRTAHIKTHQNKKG
Sequence of ZFP SBS#613 (synthetic) (chain, as listed by the source): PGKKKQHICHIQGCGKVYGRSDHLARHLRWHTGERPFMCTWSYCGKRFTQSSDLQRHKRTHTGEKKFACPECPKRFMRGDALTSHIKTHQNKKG
Sequence of ZFP SBS#656 (synthetic) (chain, as listed by the source): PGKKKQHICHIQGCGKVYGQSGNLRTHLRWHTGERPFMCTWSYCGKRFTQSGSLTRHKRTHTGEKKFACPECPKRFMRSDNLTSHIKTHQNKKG

B1: TTGTAGGGGA (dsDNA)
DNA 1: TTGTAGGGGA
DNA 2: TCCCCTACAA
Kd (ZFP SBS#629): 150 nM | Kd (ZFP SBS#628): 130 nM

B2: ACGGATGTCT (dsDNA)
DNA 1: ACGGATGTCT
DNA 2: AGACATCCGT
Kd (ZFP SBS#624): 7 nM

B3: TAGGCATAAA (dsDNA)
DNA 1: TAGGCATAAA
DNA 2: TTTATGCCTA
Kd (ZFP SBS#656): 540 nM | Kd (ZFP SBS#654): 105 nM | Kd (ZFP SBS#657): 300 nM

B4: GTTGTGGAAT (dsDNA)
DNA 1: GTTGTGGAAT
DNA 2: ATTCCACAAC
Kd (ZFP SBS#651): 67.5 nM

B5: TTGGTGGAAG (dsDNA)
DNA 1: TTGGTGGAAG
DNA 2: CTTCCACCAA
Kd (ZFP SBS#646): 35 nM | Kd (ZFP SBS#647): 40 nM

B6: GCGGAGGCGC (dsDNA)
DNA 1: GCGGAGGCGC
DNA 2: GCGCCTCCGC
Kd (ZFP SBS#666): 0.5 nM | Kd (ZFP SBS#665): 12.5 nM

B7: GTAGTTGTG (dsDNA)
DNA 1: GTAGTTGTG
DNA 2: CACAACTAC
Kd (ZFP SBS#370): 300 nM | Kd (ZFP SBS#403): 750 nM | Kd (ZFP SBS#373): 320 nM | Kd (ZFP SBS#569): 52 nM | Kd (ZFP SBS#401): 80 nM | Kd (ZFP SBS#369): 95 nM | Kd (ZFP SBS#371): 175 nM | Kd (ZFP SBS#372): 112 nM | Kd (ZFP SBS#422): 200 nM | Kd (ZFP SBS#421): 500 nM

B8: TAGGAGGCTG (dsDNA)
DNA 1: TAGGAGGCTG
DNA 2: CAGCCTCCTA
Kd (ZFP SBS#653): 5.5 nM | Kd (ZFP SBS#652): 1.5 nM

B9: GTGGCTGCAG (dsDNA)
DNA 1: GTGGCTGCAG
DNA 2: CTGCAGCCAC
Kd (ZFP SBS#611): 11.5 nM | Kd (ZFP SBS#612): 0.38 nM

B10: AAGGGGGGG (dsDNA)
DNA 1: AAGGGGGGG
DNA 2: CCCCCCCTT
Kd (ZFP SBS#617): 1 nM | Kd (ZFP SBS#619): 1.34 nM | Kd (ZFP SBS#621): 0.75 nM | Kd (ZFP SBS#620): 0.54 nM | Kd (ZFP SBS#618): 0.55 nM

B11: GAGGAGGATG (dsDNA)
DNA 1: GAGGAGGATG
DNA 2: CATCCTCCTC
Kd (ZFP SBS#616): 0.08 nM

B12: TTGGCTGGGC (dsDNA)
DNA 1: TTGGCTGGGC
DNA 2: GCCCAGCCAA
Kd (ZFP SBS#614): 2 nM | Kd (ZFP SBS#608): 8 nM | Kd (ZFP SBS#613): 1.45 nM

B13: CGGGGAGAGT (dsDNA)
DNA 1: CGGGGAGAGT
DNA 2: ACTCTCCCCG
Kd (ZFP SBS#630): 37.5 nM

B14: GAGGGAGTTC (dsDNA)
DNA 1: GAGGGAGTTC
DNA 2: GAACTCCCTC
Kd (ZFP SBS#661): 1.73 nM | Kd (ZFP SBS#660): 8.25 nM
